Laboratory results reported in patent US20130052191A1 (Sanofi, published 2013).
Positions count from the first letter of the chain named. Names may count otherwise.

B1: anti-VLA-2 IgG1-S298A/S324N (antibody)
heavy: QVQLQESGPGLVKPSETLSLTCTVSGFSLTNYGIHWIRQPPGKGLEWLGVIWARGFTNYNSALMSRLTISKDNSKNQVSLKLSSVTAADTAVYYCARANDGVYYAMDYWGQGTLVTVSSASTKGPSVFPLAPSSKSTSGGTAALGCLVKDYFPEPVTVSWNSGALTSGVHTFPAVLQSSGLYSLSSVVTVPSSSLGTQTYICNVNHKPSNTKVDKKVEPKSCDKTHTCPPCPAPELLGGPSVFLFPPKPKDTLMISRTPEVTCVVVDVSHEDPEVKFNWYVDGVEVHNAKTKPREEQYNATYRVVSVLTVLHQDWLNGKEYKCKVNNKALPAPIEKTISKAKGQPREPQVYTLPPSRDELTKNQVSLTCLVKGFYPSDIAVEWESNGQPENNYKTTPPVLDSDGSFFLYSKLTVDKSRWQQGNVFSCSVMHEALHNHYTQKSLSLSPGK
light: DFVMTQSPAFLSVTPGEKVTITCSAQSSVNYIHWYQQKPDQAPKKLIYDTSKLASGVPSRFSGSGSGTDYTFTISSLEAEDAATYYCQQWTTNPLTFGQGTKVEIKRTVAAPSVFIFPPSDEQLKSGTASVVCLLNNFYPREAKVQWKVDNALQSGNSQESVTEQDSKDSTYSLSSTLTLSKADYEKHKVYACEVTHQGLSSPVTKSFNRGEC
B2: anti-VLA-2 IgG1-S324N (antibody)
heavy: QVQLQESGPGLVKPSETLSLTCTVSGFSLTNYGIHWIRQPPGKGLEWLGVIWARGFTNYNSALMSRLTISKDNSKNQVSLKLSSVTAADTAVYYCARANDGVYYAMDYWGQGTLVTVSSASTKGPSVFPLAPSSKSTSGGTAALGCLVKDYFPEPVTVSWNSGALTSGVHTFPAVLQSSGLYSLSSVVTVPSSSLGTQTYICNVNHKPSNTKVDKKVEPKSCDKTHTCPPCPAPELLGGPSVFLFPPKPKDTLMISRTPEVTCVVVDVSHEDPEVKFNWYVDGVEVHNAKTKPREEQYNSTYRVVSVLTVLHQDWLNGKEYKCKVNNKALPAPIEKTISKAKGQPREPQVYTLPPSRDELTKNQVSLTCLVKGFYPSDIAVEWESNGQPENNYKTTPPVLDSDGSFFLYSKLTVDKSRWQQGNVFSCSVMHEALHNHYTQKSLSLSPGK
light: B1 light
B3: anti-VLA-2 IgG-1133 (antibody)
heavy: QVQLQESGPGLVKPSETLSLTCTVSGFSLTNYGIHWIRQPPGKGLEWLGVIWARGFTNYNSALMSRLTISKDNSKNQVSLKLSSVTAADTAVYYCARANDGVYYAMDYWGQGTLVTVSSASTKGPSVFPLAPSSKSTSGGTAALGCLVKDYFPEPVTVSWNSGALTSGVHTFPAVLQSSGLYSLSSVVTVPSSSLGTQTYICNVNHKPSNTKVDKKVEPKSCDKTHTCPPCPAPELLGGPSVFLFPPKPKDTLMISRTPEVTCVVVDVSHEDPEVQFKWYVDGVEVHNAKTKPREEQYNSTFRVVSVLTVLHQDWLNGKEYKCKVSNKALPAPIEKTISKTKGQPREPQVYTLPPSREEMTKNQVSLTCLVKGFYPSDIAVEWESSGQPENNYNTTPPMLDSDGSFFLYSKLTVDKSRWQQGNIFSCSVMHEALHNRFTQKSLSLSPGK
light: B1 light
B4: anti-VLA-2 IgG1-E269D (antibody)
heavy: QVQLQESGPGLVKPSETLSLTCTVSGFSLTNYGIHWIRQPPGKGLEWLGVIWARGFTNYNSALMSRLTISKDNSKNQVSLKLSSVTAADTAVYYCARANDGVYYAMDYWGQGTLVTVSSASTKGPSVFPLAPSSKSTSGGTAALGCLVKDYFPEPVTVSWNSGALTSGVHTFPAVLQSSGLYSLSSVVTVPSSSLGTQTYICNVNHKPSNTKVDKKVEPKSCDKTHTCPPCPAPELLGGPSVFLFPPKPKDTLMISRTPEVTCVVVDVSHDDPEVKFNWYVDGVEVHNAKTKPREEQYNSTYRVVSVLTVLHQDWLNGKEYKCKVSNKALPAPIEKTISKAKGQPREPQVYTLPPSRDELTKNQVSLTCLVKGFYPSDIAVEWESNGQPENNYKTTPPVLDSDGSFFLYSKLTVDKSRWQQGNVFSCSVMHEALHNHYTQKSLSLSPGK
light: B1 light
B5: anti-VLA-2 IgG1-E269D/S298A/S324N (antibody)
heavy: QVQLQESGPGLVKPSETLSLTCTVSGFSLTNYGIHWIRQPPGKGLEWLGVIWARGFTNYNSALMSRLTISKDNSKNQVSLKLSSVTAADTAVYYCARANDGVYYAMDYWGQGTLVTVSSASTKGPSVFPLAPSSKSTSGGTAALGCLVKDYFPEPVTVSWNSGALTSGVHTFPAVLQSSGLYSLSSVVTVPSSSLGTQTYICNVNHKPSNTKVDKKVEPKSCDKTHTCPPCPAPELLGGPSVFLFPPKPKDTLMISRTPEVTCVVVDVSHDDPEVKFNWYVDGVEVHNAKTKPREEQYNATYRVVSVLTVLHQDWLNGKEYKCKVNNKALPAPIEKTISKAKGQPREPQVYTLPPSRDELTKNQVSLTCLVKGFYPSDIAVEWESNGQPENNYKTTPPVLDSDGSFFLYSKLTVDKSRWQQGNVFSCSVMHEALHNHYTQKSLSLSPGK
light: B1 light
B6: anti-VLA-2 IgG1-S298A (antibody)
heavy: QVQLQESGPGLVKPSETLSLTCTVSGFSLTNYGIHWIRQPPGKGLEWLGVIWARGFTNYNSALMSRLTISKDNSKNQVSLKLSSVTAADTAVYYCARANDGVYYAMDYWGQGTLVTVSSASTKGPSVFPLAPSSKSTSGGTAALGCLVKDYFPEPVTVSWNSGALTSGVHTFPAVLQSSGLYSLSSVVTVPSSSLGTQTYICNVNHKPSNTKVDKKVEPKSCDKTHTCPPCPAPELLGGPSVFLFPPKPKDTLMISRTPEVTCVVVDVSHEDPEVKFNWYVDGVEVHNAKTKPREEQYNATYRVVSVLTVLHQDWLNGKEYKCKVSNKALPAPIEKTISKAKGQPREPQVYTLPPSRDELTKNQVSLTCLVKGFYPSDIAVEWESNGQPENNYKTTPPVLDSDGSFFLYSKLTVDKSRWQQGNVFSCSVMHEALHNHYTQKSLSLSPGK
light: B1 light
B7: anti-VLA-2 IgG3 (antibody)
heavy: QVQLQESGPGLVKPSETLSLTCTVSGFSLTNYGIHWIRQPPGKGLEWLGVIWARGFTNYNSALMSRLTISKDNSKNQVSLKLSSVTAADTAVYYCARANDGVYYAMDYWGQGTLVTVSSASTKGPSVFPLAPCSRSTSGGTAALGCLVKDYFPEPVTVSWNSGALTSGVHTFPAVLQSSGLYSLSSVVTVPSSSLGTQTYTCNVNHKPSNTKVDKRVELKTPLGDTTHTCPRCPEPKSCDTPPPCPRCPEPKSCDTPPPCPRCPEPKSCDTPPPCPRCPAPELLGGPSVFLFPPKPKDTLMISRTPEVTCVVVDVSHEDPEVQFKWYVDGVEVHNAKTKPREEQYNSTFRVVSVLTVLHQDWLNGKEYKCKVSNKALPAPIEKTISKTKGQPREPQVYTLPPSREEMTKNQVSLTCLVKGFYPSDIAVEWESSGQPENNYNTTPPMLDSDGSFFLYSKLTVDKSRWQQGNIFSCSVMHEALHNRFTQKSLSLSPGK
light: B1 light
B8: anti-VLA-2 IgG-3133 (antibody)
heavy: B3 heavy with S133C, K135R, I201T, K216R
light: B1 light
B9: anti-VLA-2 IgG1 (antibody)
heavy: not shown
light: B1 light

How the values were obtained:
[1] = target: α2β1 integrin (VLA-2) on HT1080 cells (UniProt P17301 30-1181; P05556 21-798); test: cell-based or functional assay
[2] = target: complement component C1q (in baby rabbit complement) (rabbit); test: cell-based or functional assay

Sequence of α2β1 integrin (VLA-2) on HT1080 cells (P17301 30-1181, chain 1 of 2): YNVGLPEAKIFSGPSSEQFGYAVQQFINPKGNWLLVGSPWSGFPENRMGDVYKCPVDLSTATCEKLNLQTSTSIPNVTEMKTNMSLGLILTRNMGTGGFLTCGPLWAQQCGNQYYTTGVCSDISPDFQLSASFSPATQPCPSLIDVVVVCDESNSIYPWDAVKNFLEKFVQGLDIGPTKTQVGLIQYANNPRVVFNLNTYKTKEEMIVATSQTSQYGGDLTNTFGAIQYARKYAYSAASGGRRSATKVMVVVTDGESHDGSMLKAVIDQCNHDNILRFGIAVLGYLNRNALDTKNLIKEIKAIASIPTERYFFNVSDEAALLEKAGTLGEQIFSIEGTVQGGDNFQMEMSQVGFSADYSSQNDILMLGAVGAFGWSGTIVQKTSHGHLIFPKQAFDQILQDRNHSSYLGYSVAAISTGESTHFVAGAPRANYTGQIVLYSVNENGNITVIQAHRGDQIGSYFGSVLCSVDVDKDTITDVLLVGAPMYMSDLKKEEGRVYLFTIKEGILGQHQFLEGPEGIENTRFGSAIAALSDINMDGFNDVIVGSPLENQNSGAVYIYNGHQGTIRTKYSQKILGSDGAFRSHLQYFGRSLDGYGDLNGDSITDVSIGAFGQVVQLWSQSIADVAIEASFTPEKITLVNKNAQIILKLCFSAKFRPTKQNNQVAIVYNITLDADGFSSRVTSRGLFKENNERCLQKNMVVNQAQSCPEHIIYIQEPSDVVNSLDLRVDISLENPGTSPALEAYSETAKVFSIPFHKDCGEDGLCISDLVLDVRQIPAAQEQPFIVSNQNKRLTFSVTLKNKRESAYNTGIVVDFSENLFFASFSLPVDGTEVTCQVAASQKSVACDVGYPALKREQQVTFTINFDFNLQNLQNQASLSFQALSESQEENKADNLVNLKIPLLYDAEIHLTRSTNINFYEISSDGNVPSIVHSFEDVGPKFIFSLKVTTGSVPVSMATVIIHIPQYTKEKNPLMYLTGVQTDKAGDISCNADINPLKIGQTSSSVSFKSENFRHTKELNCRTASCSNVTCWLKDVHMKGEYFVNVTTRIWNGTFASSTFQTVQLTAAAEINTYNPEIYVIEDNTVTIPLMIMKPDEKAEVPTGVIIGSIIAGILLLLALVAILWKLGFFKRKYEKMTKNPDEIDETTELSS
Sequence of α2β1 integrin (VLA-2) on HT1080 cells (P05556 21-798, chain 2 of 2): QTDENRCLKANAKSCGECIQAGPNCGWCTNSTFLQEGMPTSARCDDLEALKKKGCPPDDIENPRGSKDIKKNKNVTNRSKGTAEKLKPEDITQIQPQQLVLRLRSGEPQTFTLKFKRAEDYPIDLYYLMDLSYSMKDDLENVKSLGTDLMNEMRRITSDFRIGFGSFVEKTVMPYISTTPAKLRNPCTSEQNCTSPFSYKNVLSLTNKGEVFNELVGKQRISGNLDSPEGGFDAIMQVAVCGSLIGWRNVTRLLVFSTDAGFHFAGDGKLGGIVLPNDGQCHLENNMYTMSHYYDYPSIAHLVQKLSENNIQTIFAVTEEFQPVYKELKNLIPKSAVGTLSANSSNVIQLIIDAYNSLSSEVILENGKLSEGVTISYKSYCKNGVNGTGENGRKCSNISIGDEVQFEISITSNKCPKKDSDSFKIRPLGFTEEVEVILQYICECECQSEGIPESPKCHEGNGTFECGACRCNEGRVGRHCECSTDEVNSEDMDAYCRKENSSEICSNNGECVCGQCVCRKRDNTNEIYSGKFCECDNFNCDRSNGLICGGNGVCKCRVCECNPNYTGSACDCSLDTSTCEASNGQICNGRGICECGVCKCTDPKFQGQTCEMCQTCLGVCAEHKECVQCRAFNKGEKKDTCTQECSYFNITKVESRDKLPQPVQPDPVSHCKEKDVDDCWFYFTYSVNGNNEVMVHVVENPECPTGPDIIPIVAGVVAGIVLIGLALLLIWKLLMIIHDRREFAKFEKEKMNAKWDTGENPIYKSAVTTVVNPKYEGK

Binder | ADCC fold increase (LDH release, HT1080 target cells with human PBMC, antibody 0.1 µg/ml) [1] [fold] | CDC fold increase (LDH release, HT1080 cells, baby rabbit complement, antibody 1 µg/ml) [2] [fold] | CDC fold increase over the parental anti-VLA-2 IgG4 antibody (LDH release, HT1080 cells, baby rabbit complement, antibody 1 µg/ml) [2] [fold]
B1 | 2 | ≥ 6.6 | –
B2 | – | ≥ 6.4 | –
B3 | – | ≥ 5.6 | –
B4 | 1.5 | – | –
B5 | 1.7 | ≥ 9 | –
B6 | 1.8 | – | –
B7 | – | – | ≥ 9.6
B8 | – | ≥ 8.6 | –
B9 | 1.7 | – | –
